Drawing on paper PMC9437721, “Identification and characterization of two Isatis indigotica O-methyltransferases methylating C-glycosylflavonoids” (Horticulture Research, 2022), this text covers Km, kcat and kcat/Km for one protein.

Substrate in data set [1]: O=c1cc(-c2ccc(O)c(O)c2)oc2cc(O)c([C@@H]3O[C@H](CO)[C@@H](O)[C@H](O)[C@H]3O)c(O)c12
As to the kind of experiment: O-methyltransferase assay, UPLC, Michaelis-Menten fit. Type of data set: biochemical, Isatis tinctoria. Particulars: 480 μM SAM, Tris-HCl pH 8.0, 45 °C. An excerpt:
(§1) O-methyltransferase assay, UPLC, Michaelis-Menten fit on IiOMT1

Substrate in data set [2]: O=c1cc(-c2ccc(O)c(O)c2)oc2cc(O)cc(O)c12
Described as above. The conditions noted are these: 480 μM SAM, Tris-HCl pH 8.0, 45 °C. Type of data set: biochemical, Isatis tinctoria.
Description: as §1

B1: IiOMT1 (Isatis tinctoria) (protein)
chain: MATTTTEATKTSTNGEDKQSQNLRHQEVGHKSLLQSDDLYQYILETSVYPREPESMKELREVTAKHPWNIMTTSADEGQFLNMLIKLINAKNTMEIGVYTGYSLLATALALPEDGKILAMDVNRENYELGLPIIEKAGVAHKIDFREGPALPVLDQLVADEKNHGTYDFIFVDADKDNYINYHKRLIDLVKVGGVIGYDNTLWNGSVVAAPDAPMRKYVRYYRDFVLELNKALAADPRIEICMLPVGDGITICRRIN
notes: N-terminal His6-SUMO tag kept (pE-SUMO), E. coli Rosetta (DE3), Ni-NTA
As to B1, in data set [1], the Km worked out at 75.56 ± 8.21 µM, the catalytic constant (kcat) is 0.304 s⁻¹ and the specificity constant (kcat/Km) came to 4040 M⁻¹ s⁻¹. In addition, in data set [2], the Michaelis-Menten constant (Km) came out at 113.5 ± 10.41 µM, the kcat worked out at 0.413 s⁻¹ and the kcat/Km is 3650 M⁻¹ s⁻¹.

In general, Km refers to the substrate concentration at which the rate is half of its maximum. A word on the kcat: it is the number of substrate molecules converted per active site and unit of time at saturation. A word on the kcat/Km: it is the second-order rate constant that governs catalysis at low substrate concentration.
